Experimental data published in a protein production outcome set (Wang et al. 2014).

Test: label from the status in PepcDB records

Row | Sequence | protein production
1 | MRITHLGHSCILVEAAGQRILVDPGNLSRSWRGLTDLDAILVTHRHPDHVDPEHIGALVDANSGAVVRAEEGACHEIPALDADPVAPGDVLQIGEVRIEAVGGRHAVIHRDLEPIGNVGYLIGEGLGTILYHPGDELDETPRGVDVLACPAHAPWAAMKETVDFARSVGARHGFLIHEGLLNGRGWQLSFDRHQEMVP | failed
2 | MRITHLGHSCILVEAAGQRILVDPGNLSRSWRGLTDLDAILVTHRHPDHVDPEHIGALVDANSGAVVRAEEGACHEIPALDADPVAPGDVLQIGEVRIEAVGGRHAVIHRDLEPIGNVGYLIGEGLGTILYHPGDELDETPRGVDVLACPAHAPWAAMKETVDFARSVGARHGFLIHEGLLNGRGWQLSFDRHQEMVPTTFHDLRNGQPWEVPQDLEHHHHHH | failed
3 | MRKAYLMESIQPWIEKFIKQAQQQRSQSTKDYPTSYRNLRVKLSFGYGNFTSIPWFAFLGEGQEASNGIYPVILYYKDFDELVLAYGISDTNEPHAQWQFSSDIPKTIAEYFQATSGVYPKKYGQSYYACSQKVSQGIDYTRFASMLDNIINDYKLIFNSGKSVIPPMSKTESYCLEDALNDLFIPETTIETILKRLTIKKNIILQGPPGVGKTFVARRLAYLLTGEKAPQRVNMVQFHQSYSYEDFIQGYRPNGVGFRRKDGIFYNFCQQAKEQPEKKYIFIIDEINRANLSKVFGEVMMLMEHDKRGENWSVPLTYSENDEERFYVPENVYIIGLMNTADRSLAVVDYALRRRFSFIDIEPGFDTPQFRNFLLNKKAEPSFVESLCQKMNELNQEISKEATILGKGFRIGHSYFCCGLEDGTSPDTQWLNEIVMTDIAPLLEEYFFDDPYKQQKWTNKLLGDS | failed
4 | MRKIMREIAVYGKGGIGKSTLSANLSAALALAGRKVLQIGCDPKHDSTRLLTHGREMPTVLDYMRVTNPLDYRLEEVLAHGFSGVGCVEAGGPNPGVGCAGRGIISTFEFLDRFRLKERYDTVVYDVLGDVVCGGFAVPIRKEYADTIFIVTSGEFMALYAANNILRGVRNYDNEEKRIAGILYNRRNIEGEDDRVARFAGAVGLSVCAVIPRSDSFTRAERGKMTVMEQGSDKAIMSIFSGLAQALISGCALHEAKPLTDNELEAIVLGSISSTGGPLSGPDSLPASVTEEPSAAGPPPEIGLTDPNRYLSKNILRSEPLHGCAFNGAMSVGAQISDAVILAHSPKSCTHIMYQTISSAGRRTLFERGALLPVSLAPNLESTDMGEAEMIFGGMEKLEEKILELKARQPRAIVVVSACPAGIIGDDIGRTRRFSEPGLPVVTLKTDGNLAGDYLQGMLMAYTSLARQVIRKDVPTLPDTVNIVFEKFIVTNTNDNFQTIGSLLSRLGVRVNCRFLCETTFDSLETFCTAQLNLLAYKDYTGKLLEDFFTREYGSVFLDRAFPVGFAETEDWLRDVAAFFGRPAAAEGIIEEHKELYAREVEALKADLAGKRLMIITYNHELDWILKTALDVGIDIVKIGVFNFSQDEGFRTRLDAAFNVVENYDRGERDQDIAAYKPDILLTNYASSLADEPFVADTIPMCPDVGFHSGLVLARRWARLLKLNLKGEWRQDELLFRQYYAG | failed
5 | MRKINIFKGKHNPQRTAIDFFKYVGPGLLVTVGFIDPGNWASNVSAGSDYGYSLLWIVTLSTIMLIILQHNAAHLGIVTGDCLSEAVSKKFKPWLTNIILYSAIGAAISTAMAELLGGAIALNMLFRLPIKIGTLIMLSLVIWMLFSSSYKKLERWIIGFVSIIGLSFIFELLLVKVNWQVAAVSFVSPSFPKNSMPIIMSVLGAVVMPHNLFLHSEIIQSRQWNVEKEDVIKRQLRYEFLDTIISMIVGFAINSAMVLLAASTFFKMHVSVSELSQAQALLKPLLGGSASVVFALALLFSGIASTVTAGMAGGSIFAGIYKEPYDIEDSHTQIGVIITMVLAAVIIFFIKDPFKGLIYSQMILSIQLPITIFTQIYLTSSKKVMGKFSNSLLDRVLLGIIAVIVTALNIALLVSYF | failed
6 | MRKKLNNEYRSAKKIRYMPGLDGLRAIAVIGIIIYHLNKQWLTGGFLGVDTFFVISGYLITSLLLKEYEDTGTINLKNFWIRRIKRLLPAVFALIVVVGIATLLLHPEHIVRVKHDMIAAIFYVSNWWYIAKDVNYFEQFSFMPLKHLWSLAIEEQFYLFFPAVLLLFMAIVKKKKNVILMFWIISLVSLLMMVVISQPHLNHSRVYFGTDTRLQTLLLGVLLAFIWPPFKLNPNPPKGLKTVINSAGIIGLTFLILLFFTVSDESDWIYNGGFYLISTMTLLIIASVVHPTTILAKLLGNPLFVYIGKRSYSLYLWHFPVISFIHSYFIDGQLPTYVYIMDIVITVLLAELSFRYVETPLRKEGLKAFTFKKTYKPQFIRTIVTLIMLLPFIFILVGAFDKFGKDTISNKAQTFNTNEADQYLIHMIPIDNISLTSDGKTKENKKDNDVYTQIKPLLIGDSVMVDIGEQFKTKVPKAKIDGKVGRQLYQAESLVKNQYRHYNKPSDQIILELGTNGDFTKEQLDNLIDKFGKAQVYLVNTRVPRSYESHVNELMAKAAKNKKNVTLIDWYSRSKGHTEYFAPDGIHLENDGVEALTDEILKNIKKK | failed
7 | MRKLTFLLTFFMLLGSVQLQAKEYAIKDIPMVHLQNRTRYVSNPDGILSSTAVTTMDSILYALEQKTGIQTLVVAVTGIEGGDCFDFAHRLGQETGVGQKERDNGLVILLSTDERCVQFATGYGLEGILPDAICKRIQNRYMLPYFKDNNWNAGMVAGIRAVNGYLDGSMENIGNDESEDDPLEFIIIFFVIFGGFIGIGLYANWRKTRCPHCKKHKLQRLSSKVIDRSNGTKTEEVVYKCRNCGHILRRKERSRDENYKGPRGGGPFIGGMGGGFFGGHGGSGGGFSGGSFGGGSFGGGGAGSRF | failed
8 | MRKNILITGVHGYIGNALKDKLIEQGHQVDQINVRNQLWKSTSFKDYDVLIHTAALVHNNSPQARLSDYMQVNMLLTKQLAQKAKAEDVKQFIFMSTMAVYGKEGHVGKSDQVDTQTPMNPTTNYGISKKFAEQALQELISDSFKVAIVRPPMIYGAHCPGNFQRLMQLSKRLPIIPNINNQRSALYIKHLTAFIDQLISLEVTGVYHPQDSFYFDTSSVMYEIRRQSHRKTVLINMPSMLNKYFNKLSVFRKLFGNLIYSNTLYENNNALEIIPGKMSLVIADIMDETTTKDKA | failed
9 | MRKVLFTVALLLTACFVSAQVSVVKEAKSLKSKPEEAAKAIEPALTNPETANDPETWKLAGDFQKAIYDEENMKLYLPGGQADTTKLYNSLAKMYDFYLKCDEIEQAKVQSGELKKPKFRKKNADALKTLRLNLVNGGGDAYNKGDYADALKYFGLFVDVVNEPMFADDDELKADTLNALYACYATLAANMLKDNQAVIKYGNIGKNHKEEGYRALMCLAETYGQKEGGDSAKWLEVIKEGTESFPKQEYFVGNIMDYYIQKGMVDEGLAQINKLLATSETPYYLYVKGILLYEKKQYDDAVAIFNKIISNNGDLVAEAYSKIGDCYFFPAQIIVEENAKLAIDDPKYNENENKIKELYEKAKPYYEKAKELKPDNKALWGNYLLNIYWKLNRAEYDSLEKELGY | failed
10 | MRLAEGIVIEKEKTFGTLKFSALRREVKIVDDEGNVTEQVKERTFDLKKEQGRMIQVSIPASAGVKNFDYNAEVEIINPIADTVATATFQGADVDWYIKAEDIVLKRPAQNQQADQKQNHDKKLEHHHHHH | failed
11 | MRLERTFDPNDLSTQNMESPICLPIGFVHFLAQSQTLQQVLDTVAEWINRIFESDRTSITLYENSDYLKVYSFSGNKAIPADFLVPIDQAFVGRVFKNQQLIICDDVSQSDELDCVMLTSSGMGTCMDAPLMHGQMCLGTLNVAHHQTHFYTKEQAAQLQCIANWIALNIALHIQIMKMEHLATTDDLTGIPNRREFMRQIEHRLSEFRTQGIKFHVAILDLDNFKKLNDKFGHDAGDKSLIHAANTIKGHLRECDLLARVGGEEFAIVLRSRSSQEAMDTLETIRNALETTTIRYSGRDMTFTASIGVTQVCGLDDSFEPLVKRADLALYKAKETGRNRVEINHSEHQGVSNEQ | failed
12 | MRLFAINAGNFKLDGGAMFGVVPKSIWNKLNPADSNNLCTWATRCLLIENGKQLVLIDTGLGDKQDESFFRHYYRDTPQTWDTLLKPYGFHSSDITDVVLTHLHFDHVGGALEKKGDKIVPTFSNARYWSNTRHWDWAVEPNPREKASFLKDNLFPLQESGQLYFVDTQNLPFEWMDFIFVDGHTEQQMLPLITTPAEKKILYAADLLPSAGHIPMPYIMSYDVRPLVSMQEKERVFNQVLAEDWTVFLEHDLSNACISLQQTEKGIRLNNVFQISDFNLEHHHHHH | failed
